B1: 6R9A-A2 (antibody, V domains shown)
VH: EVQLVESGGGLVQPGGSLRLSCTASGFSFPHQAMTWVRQAPGKGLEWIGVIASNADTYYASWAKGRFTISRDNSKNTLYLQMNSLRAEDTAVYYCARHPGSAGYGYQYYYAMDPWGQGTLVTVSS
VL: DIQMTQSPSSLSASVGDRVTITCQASEEVHYGINWYQQKPGKAPKLLIYGANYRVDGVPSRFSGSGSGTDYTLTISSLQPEDFATYYCQQGYNVPTDFGGGTKVEIKR
B2: 6R9B-E9 (antibody, V domains shown)
VH: EVQLVESGGGLVQPGGSLRLSCKASGFTFSRQALTWVRQAPGKGLEWIGVIASNADTYYASWAKGRFTISRDNSKNTLYLQMNSLRAEDTAVYYCARHPGSAGYGYQYYYAMDPWGQGTLVTVSS
VL: DIQMTQSPSSLSASVGDRVTITCQASENIRYAVNWYQQKPGKAPKLLIYGANYRVDGVPSRFSGSGSGTDYTLTISSLQPEDFATYYCQQGYRVQILFGGGTKVEIKR
B3: 6R8A-F2 (antibody, V domains shown)
VH: EVQLVESGGGLVQPGGSLRLSCKASGYSLSSQALTWVRQAPGKGLEWIGVIASNADTYYASWAKGRFTISRDNSKNTLYLQMNSLRAEDTAVYYCARHPGSAGYGYQYYYAMDPWGQGTLVTVSS
VL: DIQMTQSPSSLSASVGDRVTITCQASEKVYYGVNWYQQKPGKAPKLLIYGTNYRLDGVPSRFSGSGSGTDSTLTISSLQPEDFATYYCQQGYNVPNAFGGGTKVEIKR
B4: 6R8A-A2 (antibody, V domains shown)
VH: EVQLVESGGGLVQPGGSLRLSCKASGYSLNKQALTWVRQAPGKGLEWIGVIASNADTYYASWAKGRFTISRDNSKNTLYLQMNSLRAEDTAVYYCARHPGSAGYGYQYYYAMDPWGQGTLVTVSS
VL: DIQMTQSPSSLSASVGDRVTITCQASEEVHYGINWYQQKPGKAPKLLIYGANYRVDGVPSRFSGSGSGTDYTLTISSLQPEDFATYYCQQGYNVPTDFGGGTKVEIKR
B5: 6R8C-F10 (antibody, V domains shown)
VH: EVQLVESGGGLVQPGGSLRLSCKASGFTFSRQALTWVRQAPGKGLEWIGVIASNADTYYASWAKGRFTISRDNSKNTLYLQMNSLRAEDTAVYYCARHPGSAGYGYQYYYAMDPWGQGTLVTVSS
VL: DIQMTQSPSSLSASVGDRVTITCKASEDIRYGLNWYQQKPGKAPKLLIYGANYRVDGVPSRFSGSGSGTDYTLTISSLQPEDFATYYCQQGYNVPNFFGGGTKVEIKR
B6: 6R8C-G8 (antibody, V domains shown)
VH: EVQLVESGGGLVQLGGSLRLSCKASGYSLAPQAMTWVRQAPGKGLEWIGVIASNADTYYASWAKGRFTISRDNSKNTLYLQMNSLRAEDTAVYYCARHPGSAGYGYQYYYAMDPWGQGTLVTVSS
VL: DIQMTQSPSSLSASVGDRVTITCQASEEVHYGINWYQQKPGKAPKLLIYGANYRVDGVPSRFSGSGSGTDYTLTISSLQPEDFATYYCQQGYNVPTDFGGGTKVEIKR
B7: 6R9B-B11 (antibody, V domains shown)
VH: EVQLVESGGGLVQPGGSLRLSCKASGFTFSRQALTWVRQAPGKGLEWIGVIASNADTYYASWAKGRFTISRDNSKNTLYLQMNSLRAEDTAVYYCARHPGSAGYGYQYYYAMDPWGQGTLVTVSS
VL: DIQMTQSPSSLSASVGDRVTITCQASQAIKYAINWYQQKPGKAPKLLIYGANYRGPGVPSRFSGSGSGTDYTLTISSLQPEDFATYYCQQGYIVPITFGGGTKVEIKR
B8: 6R9E-A8 (antibody, V domains shown)
VH: EVQLVESGGGLVQPGGSLRLSCKASGSTISHQAVTWVRQAPGKGLEWIGVIASNADTYYASWAKGRFTISRDNSKNTLYLQMNSLRAEDTAVYYCARHPGSAGYGYQYYYAMDPWGQGTLVTVSS
VL: DIQMTQSPSSLSASVGDRVTITCQASEEVHYGINWYQQKPGKAPKLLIYGANYRVDGVPSRFSGSGSGTDYTLTISSLQPEDFATYYCQQGYNVPTDFGGGTKVEIKR
B9: 6R8A-E1 (antibody, V domains shown)
VH: EVQLVESGGGLVQPGGSLRLSCKASGYSLAPQAMTWVRQAPGKGLEWIGVIASNADTYYASWAKGRFTISRDNSKNTLYLQMNSLRAEDTAVYYCARHPGSAGYGYQYYYAMDPWGQGTLVTVSS
VL: DIQMTQSPSSLSASVGDRVTITCQASENIRYAINWYQQKPGKAPKLLIYGANYRVDGVPSRFSGSGSGTDYTLTISSLQPEDFATYYCQQGYNVPTDFGGGTKVEIKR
B10: 6R8A-E11 (antibody, V domains shown)
VH: EVQLVESGGGLVQPGGSLRLSCKASGFTFSRQALTWVRQAPGKGLEWIGVIASNADTYYASWAKGRFTISRDNSKNTLYLQMNSLRAEDTAVYYCARHPGSAGYGYQYYYAMDPWGQGTLVTVSS
VL: DIQMTQSPSSLSASVGDRVTITCQASENIRYAINWYQQKPGKAPKLLIYGANYRVDGVPSRFSGSGSGTDYTLTISSLQPEDFATYYCQQGYNVPTDFGGGTKVEIKR
B11: 6R8C-D10 (antibody, V domains shown)
VH: EVQLVESGGGLVQPGGSLRLSCTASGYSISHQAVTWVRQAPGKGLEWIGVIASNADTYYASWAKGRFTISRDNSKNTLYLQMNSLRAEDTAVYYCARHPGSAGYGYQYYYAMDPWGQGTLVTVSS
VL: DIQMTQSPSSLSASVGDRVTITCQASEEVHYGINWYQQKPGKAPKLLIYGANYRVDGVPSRFSGSGSGTDYTLTISSLQPEDFATYYCQQGYNVPTDFGGGTKVEIKR
B12: 6R8C-D9 (antibody, V domains shown)
VH: EVQLVESGGGLVQPGGSLRLSCKASGFTFSRQALTWVRQAPGKGLEWIGVIASNADTYYASWAKGRFTISRDNSKNTLYLQMNSLRAEDTAVYYCARHPGSAGYGYQYYYAMDPWGQGTLVTVSS
VL: DIQMTQSPSSLSASVGDRVTITCQASEEVHYGINWYQQKPGKAPKLLIYGANYRVDGVPSRFSGSGSGTDYTLTISSLQPEDFATYYCQQGYNVPTDFGGGTKVEIKR
B13: Bebtelovimab (antibody, V domains shown)
VH: QITLKESGPTLVKPTQTLTLTCTFSGFSLSISGVGVGWLRQPPGKALEWLALIYWDDDKRYSPSLKSRLTISKDTSKNQVVLKMTNIDPVDTATYYCAHHSISTIFDHWGQGTLVTVSS
VL: QSALTQPASVSGSPGQSITISCTATSSDVGDYNYVSWYQQHPGKAPKLMIFEVSDRPSGISNRFSGSKSGNTASLTISGLQAEDEADYYCSSYTTSSAVFGGGTKLTVLG

In this assay the target is SARS-CoV-2 spike trimer (Wuhan) (SARS-CoV-2, UniProt P0DTC2). The assay can be described thus: competition.
As to B1, the IC50 (as a rule, the concentration that gives 50% inhibition) stood at 0.014 µg/mL.

Take B2: the IC50 came out at 0.0185 µg/mL.

Molecule B3 registered a concentration for half-maximal inhibition (IC50) of 0.0169 µg/mL.

B4 had an IC50 of 0.0106 µg/mL.

For the molecule B5, the IC50 worked out at 0.0145 µg/mL.

The molecule B6 returned a 50% inhibitory concentration (IC50) of 0.0124 µg/mL.

The molecule B7 came in with a 50% inhibitory concentration (IC50) of 0.015 µg/mL.

For B8, the 50% inhibitory concentration (IC50) was 0.0274 µg/mL.

In the case of B9, the IC50 amounted to 0.0122 µg/mL.

B10 showed a 50% inhibitory concentration (IC50) of 0.0116 µg/mL.

B11 came in with a concentration for half-maximal inhibition (IC50) of 0.0098 µg/mL.

Molecule B12 came in with a half-inhibitory concentration (IC50) of 0.0203 µg/mL.

Regarding B13, the IC50 was determined as 0.00899 µg/mL.
